For data set [1], the target named is T1, 1α PASB (HIF-1α PASB domain, 238-349) (UniProt Q16665 238-349, labelled with NT-647-NHS dye in MST).
T1 construct: range 238-349; not shown: His6 tag of vector pET28, then Met
Briefly: MST, HIF-1α PASB domain.

The target of data set [2] is T2, 2α PASB (HIF-2α PASB domain, 240-350) (UniProt Q99814 240-350, labelled with NT-647-NHS dye in MST; 15N (and 13C 15N) labelled in NMR).
T2 construct: range 240-350; also called PAS B domain of HIF-2α; not shown: His6 tag of vector pET28, then Met
Briefly: MST, HIF-2α PASB domain.

Data set [3] has as its target T3, HIF-1α (construct not given) (UniProt Q16665 1-350, limits assumed).
T3 construct: also called HIF-1 ELISA
As to the kind of experiment: HIF-1 ELISA, inhibition of HIF-1α/HIF-1β dimerisation. As to the method:
(§1) 25 μL of His-tagged HIF-α protein (either Trx-1α, Trx-2α, 1α PASB, or 2α PASB) at 0.1 μM in HIF assay buffer were added to individual wells of a Pierce Ni²⁺-coated 96-well plate (Thermo) in triplicate. The plate was rocked gently at room temperature for 1 hr, before washing with 3×200 μL assay buffer (5 min incubation per wash). 25 μL of compounds and/or DMSO at the stated concentrations were added to the plate and allowed to equilibrate for 30 min prior to the addition of 25 μL of GST-1β at 0.2 μM in assay buffer for 1 hr. For conditions in which no compound or DMSO were used, GST-1β was added as a 0.1 μM solution. After incubation with GST-1β, the wells were washed with 3×200 μL assay buffer then 1×200 μL PBS. The wells were then incubated with 100 μL mouse α-GST antibody (Thermo, MS-707-P) at a 1/1000 dilution in PBS supplemented with 0.1% Tween-20 (PBST) and 2% non-fat powdered milk (Marvel) for 1 hr, followed by 3×200 μL washed with PBS. 100 μL of secondary HRP-conjugated α-mouse antibody (GE Healthcare) was added at a 1/6000 dilution in 2% milk/PBST for 1 hr, then washed with 3×200 μL PBS. Wells were incubated with 100 μL of 1-Step Ultra TMB-ELISA solution (Thermo) until a blue colour developed (typically 10-15 min) and the reaction was stopped by the addition of 100 μL of a ⅕ dilution of conc. H₂SO₄, which turned the solution yellow. Absorbance was read at 450 nm using a Tecan Infinite M200 Pro plate reader. Data were fitted and IC₅₀ values determined by non-linear regression using GraphPad Prism 6.
A general note: ELISA stands for enzyme-linked immunosorbent assay.

Data set [4] concerns the target T4, HIF-2α (construct not given) (UniProt Q99814 1-360, limits assumed).
T4 construct: also called HIF-2 ELISA
Briefly: HIF-2 ELISA, inhibition of HIF-2α/HIF-1β dimerisation. As to the method: as §1

For data set [5], the target named is T1, 1α PASB (HIF-1α PASB domain, 238-349). As to the kind of experiment: MST, peptide titrated into labelled PAS-B domain of HIF-1α.
The target of data set [6] is T2, 2α PASB (HIF-2α PASB domain, 240-350). As to the kind of experiment: MST, peptide titrated into labelled PAS-B domain of HIF-2α.
The target in data set [7] is T4, HIF-2α (construct not stated at the …). As to the kind of experiment: HIF-2 ELISA, inhibition of HIF-2α/HIF-1β dimerisation. The source holds these as a separate data set.
Data set [8] deals with T5, Trx-1α (thioredoxin-tagged HIF-1α 1-350, bHLH-PASA-PASB) (UniProt Q16665 1-350).
T5 construct: range 1-350; not shown: Thioredoxin-His6 tag of vector pET32
As to the kind of experiment: thermal shift assay, 1 mM peptide. The procedure:
(§2) Thermal denaturation of HIF proteins was performed in 20 μL reactions in triplicate using a Bio-Rad CFX Connect Real-Time System. Proteins were used at either 5 μM (Trx-1α, Trx-2α and GST-1β) or 15 μM (His-tagged PASB domains) in HIF assay buffer, with 10 mM DTT and SYPRO orange dye (Life Technologies) at a final concentration of 8×(relative to 5000×stock), and supplemented with either DMSO or compound dissolved in DMSO at the stated concentrations. The reaction plate was assembled on ice, then transferred to the pre-chilled thermal cycler, held at 10° C. for 5 min (heated lid, 105° C.), then the temperature ramped to 95° C. Fluorescence was recorded at 0.5° C. increments, holding for 5 sec at each temperature. Data were plotted using GraphPad Prism 6, and melting temperatures calculated using the first derivative method in which the peak (i.e. the steepest transition between data points) represents the point at which 50% of the protein sample is denatured. Errors are quoted as the inherent error associated with the first derivative of the data, i.e. ±0.25° C. for Tₘ values and ±0.5° C. for ΔTₘ values.

For data set [9], the target named is T6, 1β PASB (HIF-1β PASB domain, 356-474) (UniProt P27540 356-474).
T6 construct: range 356-474; not shown: His6 tag of vector pET28
As to the kind of experiment: thermal shift assay, 1 mM peptide. As to the method:
as §2

Starred links: 1 amine or outer side, 2 acyl side, 3 side chain; linkers in the order of their positions; H or OH if unused. Non-standard residues stand in square brackets, D forms with d. Tyr(Me) = 4-methoxyphenylalanine (O-methyl-tyrosine), COc1ccc(C[C@H](N[*:1])C(=O)[*:2])cc1; FITC‑maleimide = fluorescein isothiocyanate-maleimide label on the cysteine; Tyr(3-NO2) = N[C@@H](Cc1ccc(O)c([N+](=O)[O-])c1)C(=O)O; Phe(4-NO2) = N[C@@H](Cc1ccc([N+](=O)[O-])cc1)C(=O)O; Phe(4-CN) = N#Cc1ccc(C[C@H](N)C(=O)O)cc1; Phe(4-Cl) = N[C@@H](Cc1ccc(Cl)cc1)C(=O)O; Phe(4-F) = N[C@@H](Cc1ccc(F)cc1)C(=O)O; Phe(4-Me) = Cc1ccc(C[C@H](N)C(=O)O)cc1; Cha = N[C@@H](CC1CCCCC1)C(=O)O; Pal = not defined here

T4 sequence (Q99814 1-360 limits assumed): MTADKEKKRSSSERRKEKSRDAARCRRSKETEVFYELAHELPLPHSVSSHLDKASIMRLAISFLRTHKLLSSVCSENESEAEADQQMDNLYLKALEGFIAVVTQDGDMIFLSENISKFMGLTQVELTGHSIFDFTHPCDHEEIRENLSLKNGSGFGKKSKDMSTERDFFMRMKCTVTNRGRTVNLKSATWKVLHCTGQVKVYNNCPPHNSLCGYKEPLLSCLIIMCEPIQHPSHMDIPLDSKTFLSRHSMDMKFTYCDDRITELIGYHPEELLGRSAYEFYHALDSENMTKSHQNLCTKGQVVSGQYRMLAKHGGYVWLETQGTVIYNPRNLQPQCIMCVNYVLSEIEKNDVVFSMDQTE
T2 sequence (Q99814 240-350): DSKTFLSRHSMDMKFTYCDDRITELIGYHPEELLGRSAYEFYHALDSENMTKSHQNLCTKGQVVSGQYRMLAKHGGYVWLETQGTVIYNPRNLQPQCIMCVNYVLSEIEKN
T6 sequence (P27540 356-474): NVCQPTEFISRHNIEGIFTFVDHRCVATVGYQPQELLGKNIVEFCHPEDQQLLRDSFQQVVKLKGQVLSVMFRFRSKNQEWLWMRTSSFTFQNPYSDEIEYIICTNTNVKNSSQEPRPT

cyclo(CRLLI[Phe(4-F)]) (also called CRLLIX where X = 4-F-F) [CRLLI(4-F-F)]: the Kd amounted to 6.84 µM in data set [1] and 7.41 µM in data set [2]. Also, the IC50 amounted to 37.5 µM in [3] and 11.5 µM in data set [4].

B1: CRLLI(4-MeO-F) (peptide)
peptide: cyclo(CRLLI[Tyr(Me)])
SMILES: CC[C@H](C)[C@@H]1NC(=O)[C@H](CC(C)C)NC(=O)[C@H](CC(C)C)NC(=O)[C@H](CCCNC(=N)N)NC(=O)[C@H](CS)NC(=O)[C@H](Cc2ccc(OC)cc2)NC1=O
notes: also called CRLLIX where X = 4-MeO-F
For B1, the dissociation constant Kd in [1] came to 10.8 µM; in data set [2], 4.5 µM. Further, the values for the IC50 in data set [3] and in [4] were 36.7 µM and 15.3 µM, respectively.

As to cyclo(CRLLI[Phe(4-Me)]) (also called CRLLIX where X = 4-Me-F) [CRLLI(4-Me-F)], the dissociation constant (Kd) in data set [1] was determined as 9.61 µM; in [2], 5.27 µM; in [5], 11.4 µM; in [6] it was 5.4 µM. Further, the values for the 50% inhibitory concentration (IC50) in [3] and in [4] were 11.9 µM and 6.07 µM, respectively.

cyclo(CRLLI[Pal]) (not fully specified; printed as CRLLI(Pal); reading uncertain, also called CRLLIX where X = Pal) [CRLLI(Pal)]: the dissociation constant Kd in data set [1] is 69.2 µM; in data set [2], 45.3 µM. In addition, the IC50 in data set [3] stood at 294 µM; in data set [4], 212 µM.

Take cyclo(C(FITC‑maleimide)RLLIF) [FITC-CRLLIF (SEQ ID NO 3)]: the “Activity as measured by a HIF-2 ELISA” value in data set [7] was 0.47 µM.

cyclo(CRLLI[Phe(4-CN)]) (also called CRLLIX where X = 4-CN-F) [CRLLI(4-CN-F)]: the dissociation constant (Kd) is 10 µM in data set [1] and 9.46 µM in [2]. For the same molecule, the IC50 in data set [3] was found to be 44.2 µM; in data set [4], 6.27 µM.

For CRLLIW (cyclic analogue of cyclo-CRLLIF), the Kd in data set [1] was found to be 7.7 µM; in [2], 9.6 µM.

Take cyclo(CRLLI[Phe(4-Cl)]) (also called CRLLIX where X = 4-Cl-F) [CRLLI(4-Cl-F)]: the Kd in data set [1] was found to be 2.8 µM; in data set [2], 4.15 µM; in data set [6], 4.2 µM. The results for the IC50 in data set [3] and in data set [4] were 13.2 µM and 4.88 µM, respectively.

With SGWEMIQRR (cyclic peptide (first amino acid joined to the last), One of the 4 cyclic peptide hits) [cyclo-SGWEMIQRR (SEQ ID NO 5)], the results for the ΔTm in data set [8] and in data set [9] were -2.5 ° C and -0.5 ° C, respectively.

B2: CRLLI(3-NO2-Y) (peptide)
peptide: cyclo(CRLLI[Tyr(3-NO2)])
SMILES: CC[C@H](C)[C@@H]1NC(=O)[C@H](CC(C)C)NC(=O)[C@H](CC(C)C)NC(=O)[C@H](CCCNC(=N)N)NC(=O)[C@H](CS)NC(=O)[C@H](Cc2ccc(O)c([N+](=O)[O-])c2)NC1=O
notes: also called CRLLIX where X = 3-NO2-Y
Turning to B2, the dissociation constant Kd amounted to 90.7 µM in [1] and 49 µM in [2]. Besides, the 50% inhibitory concentration (IC50) in data set [3] was found to be 19.5 µM; in data set [4], 22.7 µM.

Consider cyclo(CRLLI[Cha]) (also called CRLLIX where X = Cha) [CRLLI(Cha)], for which the Kd was determined as 1.37 µM in data set [1], 5.63 µM in data set [2], 4.1 µM in data set [5] and 5.8 µM in [6]. Also, the IC50 in data set [3] was 25.5 µM; in [4], 19.8 µM.

As for cyclo(CRLLI[Phe(4-NO2)]) (also called CRLLIX where X = 4-NO2-F) [CRLLI(4-NO2-F)], the Kd in data set [1] was 3.73 µM; in data set [2], 5.76 µM. In addition, the IC50 in data set [3] worked out at 27.8 µM; in [4], 12 µM.

Consider cyclo(C(FITC‑maleimide)KLIIF) [FITC-CKLIIF (SEQ ID NO 2)], for which the “Activity as measured by a HIF-2 ELISA” value in data set [7] was found to be 0.77 µM.

One may read the Kd as the concentration at which binding is half-saturated. Low values mean a tighter complex, high ones a looser complex. For orientation: IC50 means the concentration needed to halve the response being measured. Read a low IC50 as higher potency.

The record behind these values is patent US20190033318A1 (UNIVERSITY OF SOUTHAMPTON, published 2019).
